Experimental data: patent US20230265179A1 (TWIST BIOSCIENCE, published 2023)
Positions count from the first letter of the chain named.

T1: IL1RL2 over-expressed on Expi293 cells (UniProt Q9HB29 20-575, limits assumed)
T1 construct: whole, on cells; Target of the flow cytometry assay; MFI ratio is over-expressing cells over parent cells
T1 sequence (looked up): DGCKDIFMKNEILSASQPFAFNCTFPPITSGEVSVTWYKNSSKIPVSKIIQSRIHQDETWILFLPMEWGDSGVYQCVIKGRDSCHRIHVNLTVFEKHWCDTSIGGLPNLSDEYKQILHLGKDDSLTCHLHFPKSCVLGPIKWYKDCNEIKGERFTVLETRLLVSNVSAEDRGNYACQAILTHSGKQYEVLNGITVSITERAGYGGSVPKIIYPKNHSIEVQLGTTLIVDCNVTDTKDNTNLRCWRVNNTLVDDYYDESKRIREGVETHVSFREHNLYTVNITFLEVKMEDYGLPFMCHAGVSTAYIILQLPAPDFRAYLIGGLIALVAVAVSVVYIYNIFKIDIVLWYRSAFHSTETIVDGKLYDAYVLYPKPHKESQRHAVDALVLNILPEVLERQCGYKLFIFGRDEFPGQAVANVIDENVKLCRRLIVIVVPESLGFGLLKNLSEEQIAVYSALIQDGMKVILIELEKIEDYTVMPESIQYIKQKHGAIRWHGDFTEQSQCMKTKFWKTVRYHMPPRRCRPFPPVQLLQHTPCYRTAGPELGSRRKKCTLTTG

T2: CD40L (UniProt P29965 1-261, limits assumed)
T2 construct: whole, on cells; also called cytokine over-expressing Expi293 cells (CD40L)
T2 sequence (looked up): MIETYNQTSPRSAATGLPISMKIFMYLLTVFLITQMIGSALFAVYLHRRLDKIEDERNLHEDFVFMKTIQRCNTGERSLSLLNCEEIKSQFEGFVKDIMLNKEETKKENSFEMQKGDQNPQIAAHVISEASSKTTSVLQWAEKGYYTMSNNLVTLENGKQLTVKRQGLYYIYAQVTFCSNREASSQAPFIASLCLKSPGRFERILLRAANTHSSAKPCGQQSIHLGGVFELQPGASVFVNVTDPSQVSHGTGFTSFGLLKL

B1: IL1RL2-301 (antibody, V domains shown)
VH: EVQLLESGGGLVQPGGSLRLSCAASGFPLSSYAMSWVRQAPGKGLEWVSLISGSGVSTYYADSVKGRFTISRDNSKNTLYLQMNSLRAEDTAVYYCARGWGAAEEWGQGTLVTVSS
VL: DIQMTQSPSSLSASVGDRVTITCRASQSVSYYLNWYQQKPGKAPKLLIYGAVNLQSGVPSRFSGSGSGTDFTLTISSLQPEDFATYYCQQSHTIPYTFGQGTKVEIK
notes: IgG2
B2: CD40L-319 (antibody, V domains shown)
VH: EVQLLESGGGLVQPGGSLRLSCAASGFTFGHYAMGWVRQAPGKGLEWVSAISGSGAGTYYADSVKGRFTISRDNSKNTLYLQMNSLRAEDTAVYYCATHDSPYYYIDVWGQGTLVTVSS
VL: DIQMTQSPSSLSASVGDRVTITCRASQSIYTYLNWYQQKPGKAPKLLIYTASALQTGVPSRFSGSGSGTDFTLTISSLQPEDFATYYCQQSYRIPLTFGGGTKVEIK
B3: CD40L-321 (antibody, V domains shown)
VH: EVQLLESGGGLVQPGGSLRLSCAASGFSFRSYAMSWVRQAPGKGLEWVSIISGSGGSTSYADSVKGRFTISRDNSKNTLYLQMNSLRAEDTAVYYCARYYFGLSSNWFNPWGQGTLVTVSS
VL: B2 VL with S14Y, Y30G, T31I, Y32H, T50G, A53R, R93S, I94A
B4: CD40L-239 (antibody, V domains shown)
VH: EVQLLESGGGLVQPGGSLRLSCAASGFIFQWYDMGWVRQAPGKGLEWVSSINDRGDQTYYADSVKGRFTISRDNSKNTLYLQMNSLRAEDTAVYYCARVAFSGSFDYWGQGTLVTVSS
VL: DIQMTQSPSSLSASVGDRVTITCRASQSILSYLNWYQQKPGKAPKLLIYFTSTLAAGVPSRFSGSGSGTDFTLTISSLQPEDFATYYCQQSYSSAPTFGQGTKVEIK
B5: CD40L-342 (antibody, V domains shown)
VH: EVQLLESGGGLVQPGGSLRLSCAASGFTFSKYAMNWVRQAPGKGLEWVSAISGSGESTYYADSVKGRFTISRDNSKNTLYLQMNSLRAEDTAVYYCARAHDYDSMLMDYWGQGTLVTVSS
VL: B2 VL with Y30S, T31R, T50A, A51E, A53T, T56S, R93T, G100Q
B6: CD40L-343 (antibody, V domains shown)
VH: B5 VH
VL: DIQMTQSPSSLSASVGDRVTITCRASQYINNYLNWYQQKPGKAPKLLIYASSTLQRGVPSRFSGSGSGTDFTLTISSLQPEDFATYYCQQSFSTPITFGQGTKVEIK
B7: CD40L-330 (antibody, V domains shown)
VH: B5 VH
VL: B2 VL with S28T, Y30G, T31S, T50S, A53T, R93S, I94P
B8: CD40L-250 (antibody, V domains shown)
VH: EVQLLESGGGLVQPGGSLRLSCAASGFIFQWYDMGWVRQAPGKGLEWVSSIDWRGLLTYYADSVKGRFTISRDNSKNTLYLQMNSLRAEDTAVYYCAKAYYGGFDYWGQGTLVTVSS
VL: not shown
B9: CD40L-210 (antibody, V domains shown)
VH: EVQLLESGGGLVQPGGSLRLSCAASGGYNFRDYMHWVRQAPGKGLEWVATISGGGINTYYPDSVKGRFTISRDNSKNTLYLQMNSLRAEDTAVYYCAKDLGQGFDYWGQGTLVTVSS
VL: DIQMTQSPSSLSASVGDRVTITCSGDKLGDKYTSWYQQKPGKVPKLLIYQNDKRPSGVPSRFSGSGSGTDFTLTISSLQPEDFATYYCQQNNNWPTTFGQGTKVEIK
B10: CD40L-220 (antibody, V domains shown)
VH: B9 VH with A49S, T50S, S52T, G53S, G54E, I56G, N57S, P61A
VL: DIQMTQSPSSLSASVGDRVTITCRTSQDIGNYLNWYQQKPGKAPKLLIYGTSYRYSGVPSRFSGSGSGTDFTLTISSLQPEDFATYYCQPSFVFPYTFGQGTKVEIK
B11: CD40L-241 (antibody, V domains shown)
VH: B9 VH with A49S, T50S, G53D, G54H, I56F, P61A, D99N
VL: DIQMTQSPSSLSASVGDRVTITCRTSQDISNYLNWYQQKPGKAPKLLIYAASNVESGVPSRFSGSGSGTDFTLTISSLQPEDFATYYCASRNGWNHVVFGQGTKVEIK
B12: CD40L-205 (antibody, V domains shown)
VH: EVQLLESGGGLVQPGGSLRLSCAASGFDFSDYEMSWVRQAPGKGLEWVSSITSEGGSTYYADSVKGRFTISRDNSKNTLYLQMNSLRAEDTAVYYCAKPDVLFDYWGQGTLVTVSS
VL: DIQMTQSPSSLSASVGDRVTITCSGDNLGDKYVHWYQQKPGKAPKLLIYGKNIRPSGVPSRFSGSGSGTDFTLTISSLQPEDFANYYCQQTYSIPYTFGQGTKVEIK
B13: CD40L-214 (antibody, V domains shown)
VH: B12 VH with D28T, S30E, Y32T, S35D
VL: DIQMTQSPSSLSASVGDRVTITCSGDNLRGYYASWYQQKPGKAPKLLIYGENSRPSGVPSRFSGSGSGTDFTLTISSLQPEDFATYYCQQSYENPLTFGQGTKVEIK
B14: CD40L-216 (antibody, V domains shown)
VH: B12 VH with V101Q, L102F
VL: DIQMTQSPSSLSASVGDRVTITCRASQPIAYFLSWYQQKPGKAPKLLIYENNNRPSGVPSRFSGSGSGTDFTLTISSLQPEDFATYYCQPSFLYPYTFGQGTKVEIK
B15: CD40L-219 (antibody, V domains shown)
VH: B12 VH with V101Q, L102F
VL: B10 VL with T25A, D28S, G30S, Y32N, P90Q, S91T, F92Y, V93D, F94T, Y96L
B16: CD40L-208 (antibody, V domains shown)
VH: B12 VH with D28T, S30A, D31S, S35T, V101K, L102D
VL: DIQMTQSPSSLSASVGDRVTITCRASQTIGDYLNWYQQKPGKAPKLLIYLGSELQSGVPSRFSGSGSGTDFTLTINSLQPEDFATYYCQTWDTGESGVFGQGTKVEIK
B17: CD40L-233 (antibody, V domains shown)
VH: B12 VH with D28T, S30E, E33Q, S35G, V101K, L102D
VL: DIQMTQSPSSLSASVGDRVTITCRASQFIGRYFNWYQQKPGKAPKLLIYGATILADGVPSRFSGSGSGTDFTLTISSLQPEDFATYYCQQNNNWPTTFGQGTKVEIK
B18: CD40L-217 (antibody, V domains shown)
VH: B12 VH with D28T, S30A, D31S, S35T, V101K, L102I
VL: DIQMTQSPSSLSASVGDRVTITCKASENVDTYVSWYQQKPGKAPKLLIYDDIDRPSGVPSRFSGSGSGTDFTLTISSLQPEDFATYYCQQSYSSPRTFGQGTKVEIK
B19: CD40L-218 (antibody, V domains shown)
VH: B12 VH
VL: DIQMTQSPSSLSASVGDRVTITCRTSQSLSSYLHWYQQKPGKAPKLLIYQNDKRPSGVPSRFSGSGSGTDFTLTISSLQPEDFATYYCKQSYDLFTFGQGTKVEIK
B20: CD40L-207 (antibody, V domains shown)
VH: B12 VH with D28T, S30E, Y32T, S35D, V101K, L102D
VL: DIQMTQSPSSLSASVGDRVTITCRASQRISSFLNWYQQKPGKAPKLLIYDASNLQSGVPSRFSGSGSGTDFTLTISSLQPEDFATYYCQPSFYFPYAFGQGTKVEIK
B21: CD40L-266 (antibody, V domains shown)
VH: EVQLLESGGGLVQPGGSLRLSCAASGGYNFRDYMHWVRQAPGKGLEWVGKINYAGNTDYNDSVKGRFTISRDNSKNTLYLQMNSLRAEDTAVYYCAKNLGQGFDYWGQGTLVTVSS
VL: DIQMTQSPSSLSASVGDRVTITCRASQNIRSYLNWYQQKPGKAPKLLIYSASVLQSGVPSRFSGSGSGTDFTLTISSLQPEDFATYYCKSRAYSGNLVEFGQGTKVEIK
B22: CD40L-211 (antibody, V domains shown)
VH: EVQLLESGGGLVQPGGSLRLSCAASGGYNFRDYMHWVRQAPGKGLEWVAEIRNKANNHATKYADSVKGRFTISRDNSKNTLYLQMNSLRAEDTAVYYCAKNLGQGFDYWGQGTLVTVSS
VL: DIQMTQSPSSLSASVGDRVTITCRASQTIGDYLNWYQQKPGKAPKLLIYETSKLASGVPSRFSGSGSGTDFTLTISSLQPEDFATYYCQQSYSTPTFGQGTKVEIK

molecular target: T1, IL1RL2 over-expressed on Expi293 cells; test: flow cytometry, over-expressing Expi293 vs parent cells, 100 nM antibody;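 further: ratio is mean fluorescence intensity on over-expressing Expi293 cells divided by that measured on parental Expi293 cells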
Method: (§1) All incubations and washes were in buffer containing PBS+1% BSA. MFI Ratio is defined by the mean fluorescence intensity (MFI) of the cytokine over-expressing Expi293 cell over the Expi293 parent cell. […] EC50 was calculated in GraphPad Prism.

Binder	100 nM FACS (MFI Ratio)
B1	11.7

molecular target: T2, CD40L; test: flow cytometry, 100 nM IgG, CD40L over-expressing Expi293 cells over parent Expi293 cells
Method: as §1

Binder	100 nM FACS (MFI Ratio) [MFI ratio]
B2	4.2
B3	1.7
B4	4.2
B5	124
B6	35.8
B7	27.1
B8	27.1
B9	2.2
B10	4.3
B11	1.7
B12	6.6
B13	7.3
B14	22.4
B15	2.1
B16	1.6
B17	1.8
B18	7.7
B19	5.1
B20	11.9
B21	1.7
B22	12.1
